Like-named read-outs stand apart in the source and are kept apart here.
What was measured:
human C3b (human) [1] = target: human C3b (human) (UniProt P01024); assay: ELISA; plates coated with human C3b at 15 nM overnight at 4°C in 50 mM NaHCO3 buffer pH 9.6, blocked with 4% BSA in PBS-T; serially diluted FH CCP 15–20 or CCP 18–20 samples (concentrated supernatants) incubated 1 h at 37°C; bound FH detected with goat antiserum to human FH
human C3b (human) [2] = target: human C3b (human) (UniProt P01024); assay: as above; remark: listed apart in the source

UniProt P01024, sequence (P01024 749-1663, chain 1 of 2): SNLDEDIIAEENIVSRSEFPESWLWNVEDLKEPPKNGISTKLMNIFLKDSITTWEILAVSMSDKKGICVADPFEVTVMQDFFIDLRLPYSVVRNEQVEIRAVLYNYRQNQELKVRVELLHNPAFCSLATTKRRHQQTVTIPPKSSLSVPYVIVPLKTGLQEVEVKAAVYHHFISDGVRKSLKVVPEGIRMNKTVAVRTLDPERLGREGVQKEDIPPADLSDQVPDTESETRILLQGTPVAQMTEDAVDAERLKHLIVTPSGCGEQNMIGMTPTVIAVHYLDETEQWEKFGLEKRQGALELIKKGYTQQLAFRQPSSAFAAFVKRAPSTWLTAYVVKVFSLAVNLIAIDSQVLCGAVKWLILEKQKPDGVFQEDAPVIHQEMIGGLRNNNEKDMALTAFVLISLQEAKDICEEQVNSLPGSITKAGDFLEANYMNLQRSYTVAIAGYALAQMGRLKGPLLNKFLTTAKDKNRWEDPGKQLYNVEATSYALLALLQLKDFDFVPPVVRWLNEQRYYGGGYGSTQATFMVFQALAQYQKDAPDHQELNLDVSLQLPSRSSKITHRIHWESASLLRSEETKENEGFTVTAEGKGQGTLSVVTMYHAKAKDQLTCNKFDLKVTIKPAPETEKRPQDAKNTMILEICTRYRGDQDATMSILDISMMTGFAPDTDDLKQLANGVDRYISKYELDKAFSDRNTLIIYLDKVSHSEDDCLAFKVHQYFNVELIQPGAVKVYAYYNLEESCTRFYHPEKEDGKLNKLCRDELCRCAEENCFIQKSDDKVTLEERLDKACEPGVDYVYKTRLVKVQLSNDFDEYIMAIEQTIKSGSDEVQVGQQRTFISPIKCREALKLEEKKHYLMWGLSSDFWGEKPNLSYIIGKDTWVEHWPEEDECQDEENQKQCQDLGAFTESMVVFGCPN
UniProt P01024, sequence (P01024 749-1663, chain 2 of 2): as the sequence (P01024 749-1663, chain 1 of 2) above

percent decrease in C3b binding compared to WT (human C3b (human) [1]): 30%
percent decrease in C3b binding compared to WT (human C3b (human) [2]): 35%
Substance: Factor H CCP 15–20 fragment, variant T956M (domain or fragment)
